Measurements reported in patent US10358638B2, “Method of producing 1,5-pentadiamine using lysine decarboxylase mutant having improved thermal stability” (AJINOMOTO CO., INC., priority 2014, dated 2019).

How the values were obtained:
[1] = Inhibition of enzyme activity by iron ion and effect of chelating agent EDTA; assay type: biochemical, Escherichia coli
Description: (§1) The activity of the lysine decarboxylase was measured according to the method described in JP patent application laid-open Publication No. 2008-193899. 0.1 mL of a microbial cell suspension or a treated product thereof was added to 1 mL of a reaction solution containing 100 mM MES-NaOH buffer (pH 6.0), 10 g/L (55 mM) of L-lysine hydrochloride and 26.5 mg/L (0.1 mM) of PLP, and then the reaction mixture was incubated at 37° C. for 5 minutes. 0.1 mL of the reaction solution was collected and added to 1 mL of 1% (v/v) phosphoric acid to stop the reaction. Lysine and 1,5-PD were quantified with HPLC by a post column OPA method (S. R. Vale and M. B. Gloria, Journal Of AOAC International (1997) vol. 80, p. 1006-1012) or a method of quantifying remaining L-lysine using a biosensor BF-5 (Oji Scientific Instruments Co., Ltd.). One unit was defined as an activity that formed 1 μmol of 1,5-PD in one minute under this condition.
Cell free extracts were prepared from the strain expressing wild-type CadA and the strain overexpressing double mutant CadA, respectively in the same manner as in Examples 2 and 3. Using the resulting cell free extract, iron sulfate heptahydrate (Nacalai Tesque Inc.) at a final concentration of […] (2 mM) was added to the composition shown in Example 1, and an inhibitory effect was measured. […]

[2] = Enzyme activity of culture media of expressing strains after heat treatment with or without disruption; assay type: cell-based, Escherichia coli
Description: as §1
Microbial cells of E. coli JM109/pCadA220 and E. coli JM109/pCadA234 carrying the wild-type CadA and the double mutant CadA, respectively were cultured in the LB medium. Subsequently, 15 mL of the cultured medium was inoculated into 300 mL of culture medium (25 g/L of glucose, 5 g/L of ammonium sulfate, 2 g/L of potassium phosphate, 1 g/L of magnesium sulfate heptahydrate, 20 mg/L of iron sulfate heptahydrate, 20 mg/L of manganese sulfate pentahydrate, 1 mg/L of thiamine hydrochloride, 0.45 g/L of hydrolyzed soybeans, pH 7.0) in a 500 mL jar fermenter (manufactured by ABLE & Biott Co., Ltd.), and cultured with ventilation at 300 mL/minute while stirring at 250 rpm at 30° C. for 12 hours. Culture media containing 10.1 g/L and 10.9 g/L of microbial cells in terms of dry microbial cell weight were able to be prepared for E. coli JM109/pCadA220 and E. coli JM109/pCadA234, respectively. For the purpose of improving substrate permeability, the pH value was adjusted to 5.5, and subsequently the culture media were incubated at 55° C. and 60° C., and then the culture media were directly used to measure the activity after the incubation.
Since the lysine decarboxylase is expressed within the microbial cell, when the microbial cell is used directly, lysine cannot react with the lysine decarboxylase, and the efficiency of a decarboxylation reaction is very poor. […] However, the wild-type enzyme was inactivated during the incubation when heated excessively. The mutated enzyme having the improved thermal stability could stably keep its activity even when using conditions where the wild-type enzyme was easily inactivated as shown in Example 2. When the microbial cells carrying such a mutated enzyme were used, efficient treatment in a short period of time was possible. This has shown that the mutated enzyme not only can act at higher temperature upon reaction but also can be easily used when the microbial cell is directly used.

[3] = Incubation at 55° C. for 1 h, Disruption
[4] = Incubation at 55° C. for 1 h, physical treatment None
[5] = Incubation at 55° C. for 3 h, Disruption
[6] = Incubation at 55° C. for 3 h, physical treatment None
[7] = Incubation at 60° C. for 1 h, Disruption
[8] = Incubation at 60° C. for 1 h, physical treatment None
[9] = No heat treatment, physical treatment None

B1: pCadA220: wild-type lysine decarboxylase (CadA) derived from Escherichia coli W3110, expressed from plasmid pCadA220 (protein, UniProt P0A9H3 1-715, looked up)
Inducible lysine decarboxylase: MNVIAILNHMGVYFKEEPIRELHRALERLNFQIVYPNDRDDLLKLIENNARLCGVIFDWDKYNLELCEEISKMNENLPLYAFANTYSTLDVSLNDLRLQISFFEYALGAAEDIANKIKQTTDEYINTILPPLTKALFKYVREGKYTFCTPGHMGGTAFQKSPVGSLFYDFFGPNTMKSDISISVSELGSLLDHSGPHKEAEQYIARVFNADRSYMVTNGTSTANKIVGMYSAPAGSTILIDRNCHKSLTHLMMMSDVTPIYFRPTRNAYGILGGIPQSEFQHATIAKRVKETPNATWPVHAVITNSTYDGLLYNTDFIKKTLDVKSIHFDSAWVPYTNFSPIYEGKCGMSGGRVEGKVIYETQSTHKLLAAFSQASMIHVKGDVNEETFNEAYMMHTTTSPHYGIVASTETAAAMMKGNAGKRLINGSIERAIKFRKEIKRLRTESDGWFFDVWQPDHIDTTECWPLRSDSTWHGFKNIDNEHMYLDPIKVTLLTPGMEKDGTMSDFGIPASIVAKYLDEHGIVVEKTGPYNLLFLFSIGIDKTKALSLLRALTDFKRAFDLNLRVKNMLPSLYREDPEFYENMRIQELAQNIHKLIVHHNLPDLMYRAFEVLPTMVMTPYAAFQKELHGMTEEVYLDEMVGRINANMILPYPPGVPLVMPGEMITEESRPVLEFLQMLCEIGAHYPGFETDIHGAYRQADGRYTVKVLKEESKK
activity with 2 mM iron ion, of the activity when no iron ion was added ([1]; 2 mM iron ion, no EDTA): 46.8% | Enzyme activity ([1]; FeSO4 2 mM, EDTA 0.5 mM): 827 units/ml | Enzyme activity ([1]; FeSO4 2 mM, EDTA 1 mM): 856 units/ml | Enzyme activity ([1]; FeSO4 2 mM, EDTA 2 mM): 821 units/ml | Enzyme activity ([1]; FeSO4 2 mM, EDTA 4 mM): 840 units/ml | Enzyme activity ([1]; FeSO4 2 mM, EDTA 5 mM): 832 units/ml | Enzyme activity ([1]; FeSO4 2 mM, EDTA None): 398 units/ml | Enzyme activity ([1]; FeSO4 None, EDTA 2 mM): 840 units/ml | Enzyme activity ([1]; FeSO4 None, EDTA None): 850 units/ml | Enzyme activity [2, 3]: 819 units/ml | Relative activity [2, 3]: 89.6% | Enzyme activity [2, 4]: 246 units/ml | Relative activity [2, 4]: 26.9% | Enzyme activity [2, 5]: 730 units/ml | Relative activity [2, 5]: 79.9% | Enzyme activity [2, 6]: 375 units/ml | Relative activity [2, 6]: 41.0% | Enzyme activity [2, 7]: 798 units/ml | Relative activity [2, 7]: 87.3% | Enzyme activity [2, 8]: 282 units/ml | Relative activity [2, 8]: 30.9% | Enzyme activity ([2]; No heat treatment, Disruption): 914 units/ml | Relative activity ([2]; No heat treatment, Disruption): 100% | Enzyme activity [2, 9]: 17.5 units/ml | Relative activity [2, 9]: 1.9%
